Laboratory results published in FireProtDB (doi:10.1021/bi0357412).

B1: Phosphocarrier protein HPr, P08877 (parent)
chain: MAQKTFKVTADSGIHARPATVLVQTASKYDADVNLEYNGKTVNLKSIMGVMSLGIAKGAEITISASGADENDALNALEETMKSEGLGE

Variants of: B1
Settings: Bacillus subtilis (strain 168); pH 7; 25 °C; GdnHCl; CD; Potassium phosphate 10 mM; reversible: yes; structure 1SPH; whole UniProt chain shown

| Variant | ddG of mutation (higher = less stable) [kcal/mol] | denaturant m value [kcal/mol/M] | denaturant midpoint (higher = more stable) [M] | unfolding free energy [kcal/mol] |
| --- | --- | --- | --- | --- |
| D69A G49E | -0.6 | 2.4 | 1.8 | 4.3 |

Same assay, conditions: Bacillus subtilis (strain 168); pH 7; 25 °C; Thermal; CD; Sodium phosphate 50 mM; reversible: yes; structure 1SPH; whole UniProt chain shown

| Variant | ddG of mutation (higher = less stable) [kcal/mol] | unfolding free energy [kcal/mol] |
| --- | --- | --- |
| D69A G49E | 0.7 | 4.4 |

Same assay, conditions: Bacillus subtilis (strain 168); pH 7; 25 °C; Urea; CD; Sodium phosphate 50 mM; reversible: yes; structure 1SPH; whole UniProt chain shown

| Variant | ddG of mutation (higher = less stable) [kcal/mol] | denaturant m value [kcal/mol/M] | denaturant midpoint (higher = more stable) [M] | unfolding free energy [kcal/mol] |
| --- | --- | --- | --- | --- |
| D69A G49E | 0.7 | 1.1 | 3.9 | 4.2 |

Same assay, conditions: Bacillus subtilis (strain 168); pH 7; Thermal; DSC; Potassium phosphate 10 mM; reversible: yes; structure 1SPH; whole UniProt chain shown

| Variant | Tm [°C] | change of melting temperature, mutant - wild type (higher = more stable) [°C] | unfolding enthalpy (calorimetric) [kcal/mol] |
| --- | --- | --- | --- |
| D69A G49E | 70 | -4.9 | 71.5 |
